{
  "source": "paper PMC9253567",
  "molecular_target": "myc-tagged TRIM25 WT (tripartite motif-containing protein 25), Q14258",
  "sequence (Q14258 whole entry)": "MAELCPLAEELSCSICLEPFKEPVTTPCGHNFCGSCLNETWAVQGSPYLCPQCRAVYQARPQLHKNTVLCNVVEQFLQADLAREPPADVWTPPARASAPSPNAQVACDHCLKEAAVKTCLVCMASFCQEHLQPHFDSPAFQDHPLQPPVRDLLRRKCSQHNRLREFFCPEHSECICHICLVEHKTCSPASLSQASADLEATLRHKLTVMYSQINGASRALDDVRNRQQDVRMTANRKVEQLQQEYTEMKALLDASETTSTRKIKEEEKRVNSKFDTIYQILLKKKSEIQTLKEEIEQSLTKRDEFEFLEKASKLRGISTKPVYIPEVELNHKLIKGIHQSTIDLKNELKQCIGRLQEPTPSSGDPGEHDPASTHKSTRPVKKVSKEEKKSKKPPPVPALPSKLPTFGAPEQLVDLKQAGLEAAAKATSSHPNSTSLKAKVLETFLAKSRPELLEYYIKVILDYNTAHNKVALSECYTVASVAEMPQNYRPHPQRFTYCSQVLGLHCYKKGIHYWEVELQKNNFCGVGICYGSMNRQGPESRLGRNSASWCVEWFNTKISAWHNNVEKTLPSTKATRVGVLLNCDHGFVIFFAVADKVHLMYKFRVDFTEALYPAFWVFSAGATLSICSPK",
  "assay": "co-IP; myc IP (anti-myc beads) of myc-TRIM25 WT from lysates of ZAP KO 293T cells co-transfected with FLAG-ZAPS or FLAG-ZAPL WT or mutants; FLAG-ZAP detected by immunoblot; FLAG IP buffer (100 mM Tris-HCl 8.0, 150 mM NaCl, 5 mM EDTA, 1 mM DTT, 5% glycerol, 0.1% NP-40), 4°C, 45 min; FLAG IP band divided by myc IP band (ImageJ)",
  "conditions": "remark: other sources report otherwise",
  "note": "Where “and” joins values, the source holds several entries; their conditions need not be identical. Identical values can stand only once.",
  "data": [
    {"binder": "FLAG-tagged ZAPS WT (zinc finger antiviral protein, short isoform), Q7Z2W4-2 1-699 (natural protein) MADPEVCCFITKILCAHGGRMALDALLQEIALSEPQLCEVLQVAGPDRFVVLETGGEAGITRSVVATTRARVCRRKYCQRPCDNLHLCKLNLLGRCNYSQSERNLCKYSHEVLSEENFKVLKNHELSGLNKEELAVLLLQSDPFFMPEICKSYKGEGRQQICNQQPPCSRLHICDHFTRGNCRFPNCLRSHNLMDRKVLAIMREHGLNPDVVQNIQDICNSKHMQKNPPGPRAPSSHRRNMAYRARSKSRDRFFQGSQEFLASASASAERSCTPSPDQISHRASLEDAPVDDLTRKFTYLGSQDRARPPSGSSKATDLGGTSQAGTSQRFLENGSQEDLLHGNPGSTYLASNSTSAPNWKSLTSWTNDQGARRKTVFSPTLPAARSSLGSLQTPEAVTTRKGTGLLSSDYRIINGKSGTQDIQPGPLFNNNADGVATDITSTRSLNYKSTSSGHREISSPRIQDAGPASRDVQATGRIADDADPRVALVNDSLSDVTSTTSSRVDDHDSEEICLDHLCKGCPLNGSCSKVHFHLPYRWQMLIGKTWTDFEHMETIEKGYCNPGIHLCSVGSYTINFRVMSCDSFPIRRLSTPSSVTKPANSVFTTKWIWYWKNESGTWIQYGEEKDKRKNSNVDSSYLESLYQSCPRGVVPFQAGSRNYELSFQGMIQTNIASKTQKDVIRRPTFVPQWYVQQMKRGPE", "values": [
      {"measurement": "ZAP-TRIM25 interaction (co-IP, FLAG-ZAP band over myc-TRIM25 band, ImageJ)", "result": "0.131 and 0.304"}
    ]}
  ]
}
